Results on 1 substance are retold here after patent publication US20210230307A1.

The target in this assay is Chicken egg white-derived lysozyme (Sigma-Aldrich) (chicken) (UniProt P00698). Nature of the assay: SPR, Biacore T200; antigen immobilized, antibody as analyte, as in Example 1. Background: In SPR one partner is held on a chip, and binding of the other changes the refractive index at the surface.
Sequence of Chicken egg white-derived lysozyme (Sigma-Aldrich) (chicken) (P00698 19-147): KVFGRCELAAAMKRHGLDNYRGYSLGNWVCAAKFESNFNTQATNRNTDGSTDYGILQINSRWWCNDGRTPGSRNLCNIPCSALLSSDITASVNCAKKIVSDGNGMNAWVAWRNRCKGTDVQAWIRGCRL

In general, Kd refers to the constant that tells how readily two partners part at equilibrium. High values mean weaker binding, low ones tighter binding. “Wild-type mouse anti-lysozyme antibody of clone Hy-HEL5” yielded a dissociation constant (Kd) of 177 pM. That is a sub-nanomolar value.
